In the RNAGym collection of RNA variant scans (doi:10.7554/elife.80360):

B1: HDV Ribozyme (parent)
chain: GGCCGGCAUGGUCCCAGCCUCCUCGCUGGCGCCGGCUGGGCAACAUUCCGAGGGGACCGUCCCCUCGGUAAUGGCGAAUGGGACCCA

Variants of: B1
Test: self-cleavage, relative activity (ratio to wild type); higher = more cleavage; co-transcriptional

Compared with G1C C61G, G1A A51G is lower in self-cleavage: 0.0504 for the first, 0 for the second.

Compared with G1C G6U, G1C C66A is lower in self-cleavage: 0.217 for the first, 0.19 for the second.

Compared with G1C C66G, G1C C66U is higher in self-cleavage: 0.128 for the first, 0.208 for the second.

Compared with G1C U9C, G1C U9G is higher in self-cleavage: 0 for the first, 0.104 for the second.

Going from G1U C64U to G1C G28A, the self-cleavage falls from 0.451 to 0.0405.

First: G1A G11U
Second: G1A G11A
The self-cleavage of the first is higher: 0.0992 for the first, 0.0779 for the second.

First: G1A C24U
Second: G1A C24A
The self-cleavage of the first is lower: 0.111 for the first, 0.119 for the second.

Going from G1A C3U to G1U G6U, the self-cleavage rises from 0.297 to 0.429.

Going from G1A U69G to G1A U69C, the self-cleavage falls from 0.369 to 0.104.

First: G1A G52A
Second: G1A U27A
The self-cleavage of the first is higher: 0.138 for the first, 0 for the second.

Compared with G1A U27C, G1A G73C is lower in self-cleavage: 0.119 for the first, 0.0739 for the second.

First: G1A A70U
Second: G1A A70C
The self-cleavage of the first is lower: 0 for the first, 0.192 for the second.

First: G1U C21U
Second: G1U C21A
The self-cleavage of the first is lower: 0.348 for the first, 0.397 for the second.

Going from G1U C21G to G1C C24A, the self-cleavage falls from 0.312 to 0.142.

First: G1C C24G
Second: G1U G35C
The self-cleavage of the first is lower: 0.0462 for the first, 0.191 for the second.

Going from G1C A43U to G1C A43C, the self-cleavage rises from 0.135 to 0.332.

Going from G1U C32A to G1C G10U, the self-cleavage falls from 0.289 to 0.143.

Compared with G1U C86U, G1U C86G is higher in self-cleavage: 0.212 for the first, 0.289 for the second.

Going from G1C C63U to G1C U79C, the self-cleavage rises from 0.0898 to 0.177.

Compared with G1C U79A, G1C U27G is higher in self-cleavage: 0.237 for the first, 0.277 for the second.

Going from G1C U27A to G1C A8U, the self-cleavage falls from 0.185 to 0.0978.

G1C A8C and G1C G5C are the same in self-cleavage: 0 for the first, 0 for the second.

First: G1C A70C
Second: G1C U72G
The self-cleavage of the first is higher: 0.185 for the first, 0 for the second.

Going from G1U C63G to G1U C63A, the self-cleavage falls from 0.453 to 0.391.

First: G1U C63U
Second: G1A G76U
The self-cleavage of the first is higher: 0.535 for the first, 0.185 for the second.

Going from G1A G76C to G1A G76A, the self-cleavage rises from 0.185 to 0.462.

Compared with G1U A83C, G1U A83G is higher in self-cleavage: 0.259 for the first, 0.461 for the second.

First: G1U C36G
Second: G1U C36U
The self-cleavage of the first is lower: 0.306 for the first, 0.318 for the second.

Going from G1U C85A to G1U C85U, the self-cleavage falls from 0.361 to 0.321.

Compared with G1A G38C, G1U G2A is higher in self-cleavage: 0.0405 for the first, 0.262 for the second.

Going from G1A G55C to G1A G55A, the self-cleavage falls from 0.115 to 0.0519.

Going from G1A A77U to G1A A77G, the self-cleavage rises from 0 to 0.237.

Compared with G1A C4A, G1U G28C is higher in self-cleavage: 0.166 for the first, 0.185 for the second.

First: G1U G28A
Second: G1A A87G
The self-cleavage of the first is higher: 0.292 for the first, 0.141 for the second.

Compared with G1U C4A, G1U C4U is lower in self-cleavage: 0.277 for the first, 0.251 for the second.

Going from G1C C30G to G1A U12A, the self-cleavage falls from 0.128 to 0.0415.

Going from G1A G5C to G1C G68A, the self-cleavage rises from 0 to 0.158.

Compared with G1C G82U, G1C G82C is lower in self-cleavage: 0.095 for the first, 0.0504 for the second.

Compared with G1A U46A, G1A U46G is higher in self-cleavage: 0.0755 for the first, 0.138 for the second.

Going from G1C C3G to G1C G74C, the self-cleavage falls from 0.443 to 0.

Compared with G1C G74A, G1A C63A is higher in self-cleavage: 0.0678 for the first, 0.289 for the second.

First: G1C U23A
Second: G1C G67U
The self-cleavage of the first is higher: 0.128 for the first, 0.0739 for the second.

First: G1C G67A
Second: G1C G67C
The self-cleavage of the first is lower: 0.0898 for the first, 0.111 for the second.

First: G1U G31U
Second: G1U G31C
The self-cleavage of the first is higher: 0.385 for the first, 0.356 for the second.

Going from G1C C84A to G1C C84U, the self-cleavage falls from 0.166 to 0.128.

Going from G1C A71G to G1C A71C, the self-cleavage rises from 0 to 0.256.

Compared with G1A C26U, G1A C26A is higher in self-cleavage: 0 for the first, 0.119 for the second.

Compared with G1A C26G, G1C C36A is higher in self-cleavage: 0 for the first, 0.151 for the second.

Compared with G1A U37A, G1U C84A is higher in self-cleavage: 0.161 for the first, 0.408 for the second.

First: G1A A71G
Second: G1C C62A
The self-cleavage of the first is higher: 0.104 for the first, 0.101 for the second.

Compared with G1C C62U, G1C C62G is lower in self-cleavage: 0.282 for the first, 0.0831 for the second.

First: G1C A87U
Second: G1A C57A
The self-cleavage of the first is lower: 0.104 for the first, 0.208 for the second.

First: G1A C57G
Second: G1A G34A
The self-cleavage of the first is lower: 0 for the first, 0.136 for the second.

Compared with G1A G34C, G1A G35U is higher in self-cleavage: 0 for the first, 0.158 for the second.

Compared with G1A G35A, G1U G17U is higher in self-cleavage: 0.101 for the first, 0.309 for the second.

Going from G1C A83G to G1C A83U, the self-cleavage rises from 0.151 to 0.252.

Going from G1U G29U to G1U G29C, the self-cleavage falls from 0.308 to 0.292.

Going from G1U G25U to G1A U65C, the self-cleavage falls from 0.248 to 0.0875.

Compared with G1C C13A, G1U A56U is higher in self-cleavage: 0.0386 for the first, 0.394 for the second.

First: G1U A56G
Second: G1U C49U
The self-cleavage of the first is higher: 0.521 for the first, 0.391 for the second.

Compared with G1C C22A, G1C C22G is lower in self-cleavage: 0.203 for the first, 0 for the second.

G1C C21G and G1C C21U are the same in self-cleavage: 0 for the first, 0 for the second.

First: G1C C21A
Second: G1A G74U
The self-cleavage of the first is lower: 0 for the first, 0.0563 for the second.

Compared with G1A G74C, G1C G2A is higher in self-cleavage: 0 for the first, 0.138 for the second.

Going from G1C G2U to G1A C19U, the self-cleavage falls from 0.256 to 0.101.

Compared with G1A C19A, G1A U60A is higher in self-cleavage: 0.0744 for the first, 0.185 for the second.

Going from G1A G25A to G1A G25U, the self-cleavage falls from 0.0739 to 0.0462.

First: G1U C66U
Second: G1A C7G
The self-cleavage of the first is higher: 0.296 for the first, 0.0405 for the second.

Compared with G1A U47G, G1A U47C is higher in self-cleavage: 0 for the first, 0.128 for the second.

First: G1A U47A
Second: G1U C22A
The self-cleavage of the first is lower: 0.145 for the first, 0.441 for the second.

Going from G1U G11U to G1U G11A, the self-cleavage falls from 0.439 to 0.364.

Compared with G1C G55A, G1A U23C is lower in self-cleavage: 0.106 for the first, 0 for the second.

First: G1A C36A
Second: G1A C36G
The self-cleavage of the first is higher: 0.154 for the first, 0.119 for the second.

First: G1A G17A
Second: G1U C75A
The self-cleavage of the first is lower: 0.0811 for the first, 0.277 for the second.

First: G1U C75U
Second: G1A G67A
The self-cleavage of the first is higher: 0.321 for the first, 0.0665 for the second.

Going from G1A G67C to G1C C57U, the self-cleavage rises from 0 to 0.252.

Going from G1C C57G to G1U A45U, the self-cleavage rises from 0.222 to 0.441.

Compared with G1U A45C, G1U A45G is lower in self-cleavage: 0.453 for the first, 0.291 for the second.

Compared with G1U A87C, G1U A87G is lower in self-cleavage: 0.408 for the first, 0.332 for the second.

Compared with G1U C30U, G1U C30G is lower in self-cleavage: 0.35 for the first, 0.282 for the second.

Compared with G1A C64A, G1A C64U is lower in self-cleavage: 0.131 for the first, 0.101 for the second.

First: G1A C75U
Second: G1U G38A
The self-cleavage of the first is lower: 0.0639 for the first, 0.422 for the second.

Compared with G1C G52A, G1C G52U is higher in self-cleavage: 0.166 for the first, 0.219 for the second.

Variant G1C G29C has a self-cleavage of 0.0665.
